The source of these data is patent publication US20110151450.

What all share (experiment): cleavage_in_vitro
Data set [1] relates to T1, ApoI-HF T77A/T96A (Arthrobacter protophormiae).
T1 sequence: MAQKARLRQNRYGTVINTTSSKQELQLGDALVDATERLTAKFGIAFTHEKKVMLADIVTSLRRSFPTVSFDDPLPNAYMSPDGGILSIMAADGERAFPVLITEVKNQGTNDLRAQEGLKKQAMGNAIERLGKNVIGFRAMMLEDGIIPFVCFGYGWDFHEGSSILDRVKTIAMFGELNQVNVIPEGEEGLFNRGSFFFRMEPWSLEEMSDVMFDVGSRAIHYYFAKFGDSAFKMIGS
Particulars: NEB4, relative activity 50%.

Data set [2] deals with T2, ApoI-WT (Arthrobacter protophormiae).
T2 sequence: T1 sequence with A77T, A96T
The settings on record: NEB4, relative activity 50%.

Data set [3] concerns the target T3, BglII-WT (Bacillus globigii) (UniProt Q45488).
T3 sequence: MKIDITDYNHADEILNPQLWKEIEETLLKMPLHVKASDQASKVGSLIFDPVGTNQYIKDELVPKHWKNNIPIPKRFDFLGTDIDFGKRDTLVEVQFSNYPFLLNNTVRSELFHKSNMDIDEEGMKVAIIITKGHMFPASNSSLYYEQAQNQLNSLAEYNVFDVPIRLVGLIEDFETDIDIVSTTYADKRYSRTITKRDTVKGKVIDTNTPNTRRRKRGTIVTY
The settings on record: NEB4, relative activity 6.3%.

Data set [4] relates to T4, BsaWI-WT (Bacillus stearothermophilus).
T4 sequence: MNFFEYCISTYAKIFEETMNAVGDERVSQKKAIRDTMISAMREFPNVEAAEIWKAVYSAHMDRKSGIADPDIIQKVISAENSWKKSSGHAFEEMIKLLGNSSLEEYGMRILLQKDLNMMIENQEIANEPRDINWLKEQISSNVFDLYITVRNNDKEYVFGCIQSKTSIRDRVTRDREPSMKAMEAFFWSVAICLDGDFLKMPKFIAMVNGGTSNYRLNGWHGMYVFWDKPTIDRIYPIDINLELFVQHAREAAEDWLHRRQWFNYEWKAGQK
Particulars: NEB4, relative activity 100%.

Data set [5] relates to T5, NsiI-WT (Neisseria sicca).
T5 sequence: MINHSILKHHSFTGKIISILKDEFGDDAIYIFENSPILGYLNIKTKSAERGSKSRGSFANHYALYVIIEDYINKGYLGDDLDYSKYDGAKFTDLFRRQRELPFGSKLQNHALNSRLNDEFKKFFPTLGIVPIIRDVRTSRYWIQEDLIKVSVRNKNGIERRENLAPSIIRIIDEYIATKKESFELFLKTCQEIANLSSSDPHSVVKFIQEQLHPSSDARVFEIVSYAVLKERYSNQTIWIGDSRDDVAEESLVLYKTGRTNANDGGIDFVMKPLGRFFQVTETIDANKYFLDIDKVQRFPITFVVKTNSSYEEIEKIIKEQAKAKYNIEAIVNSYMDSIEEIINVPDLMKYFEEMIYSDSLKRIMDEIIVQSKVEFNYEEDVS
The settings on record: NEB4, relative activity 12.5%.

The subject of data set [6] is T6, PmeI-WT (Pseudomonas mendocina).
T6 sequence: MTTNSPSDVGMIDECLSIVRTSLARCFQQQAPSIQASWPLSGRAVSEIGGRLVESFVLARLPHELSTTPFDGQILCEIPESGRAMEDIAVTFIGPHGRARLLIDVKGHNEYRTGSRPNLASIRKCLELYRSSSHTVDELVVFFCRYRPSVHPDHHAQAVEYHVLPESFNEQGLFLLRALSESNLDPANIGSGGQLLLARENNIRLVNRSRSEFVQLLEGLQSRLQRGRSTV
The settings on record: NEB4, relative activity 25%.

In data set [7] the test system is T7, PvuI-HF P154A (Proteus vulgaris).
T7 sequence: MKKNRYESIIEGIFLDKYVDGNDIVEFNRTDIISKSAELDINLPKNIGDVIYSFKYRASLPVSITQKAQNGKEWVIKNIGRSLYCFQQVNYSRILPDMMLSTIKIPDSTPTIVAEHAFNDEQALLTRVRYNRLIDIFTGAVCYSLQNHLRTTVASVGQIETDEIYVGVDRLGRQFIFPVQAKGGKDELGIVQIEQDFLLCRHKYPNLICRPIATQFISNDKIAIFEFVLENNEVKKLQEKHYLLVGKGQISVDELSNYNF
Particulars: NEB4, relative activity 100%.

For data set [8], the target named is T8, SmaI-WT (Serratia marcescens) (UniProt P14229).
T8 sequence: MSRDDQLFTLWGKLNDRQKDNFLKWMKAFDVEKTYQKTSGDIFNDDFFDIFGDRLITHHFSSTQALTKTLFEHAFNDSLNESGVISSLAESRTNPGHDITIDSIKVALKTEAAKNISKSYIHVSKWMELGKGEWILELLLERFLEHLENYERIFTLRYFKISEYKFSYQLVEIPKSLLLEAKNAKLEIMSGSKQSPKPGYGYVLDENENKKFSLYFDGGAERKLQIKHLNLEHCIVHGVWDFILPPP
Particulars: NEB4, relative activity 100%.

Positions count from the first letter of the chain named. Bounds are passed on as bounds.

As for pXba plasmid, the activity (fidelity index) was more than 2000 in data set [1]; 32 in data set [2]; 16 in data set [3]; 16 in data set [4]; 32 in data set [5]; 64 in data set [6]. For the same substance, the activity (fidelity index) was more than 16000 in data set [7] and 64 in data set [8].
